One block for each binder: values may come before it.
Tests used:
[1] = target: T1, human β-factor XIIa (human), P00748; experiment: competitive protease inhibition assay, Ac-QRFR-pNA substrate, Morrison Ki
T1 chain 1: NGPLSCGQR
T1 chain 2: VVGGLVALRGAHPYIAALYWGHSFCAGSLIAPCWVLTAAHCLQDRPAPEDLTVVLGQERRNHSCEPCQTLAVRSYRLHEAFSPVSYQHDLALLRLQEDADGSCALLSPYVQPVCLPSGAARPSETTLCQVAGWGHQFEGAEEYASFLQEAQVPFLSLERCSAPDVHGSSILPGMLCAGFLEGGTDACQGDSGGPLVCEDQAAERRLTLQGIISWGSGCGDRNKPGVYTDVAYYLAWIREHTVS

[2] = target: T2, human plasmin (human), P00747; experiment: competitive protease inhibition assay (selectivity panel), human plasmin, Ac-RM(O2)YR-pNA
T2 chain: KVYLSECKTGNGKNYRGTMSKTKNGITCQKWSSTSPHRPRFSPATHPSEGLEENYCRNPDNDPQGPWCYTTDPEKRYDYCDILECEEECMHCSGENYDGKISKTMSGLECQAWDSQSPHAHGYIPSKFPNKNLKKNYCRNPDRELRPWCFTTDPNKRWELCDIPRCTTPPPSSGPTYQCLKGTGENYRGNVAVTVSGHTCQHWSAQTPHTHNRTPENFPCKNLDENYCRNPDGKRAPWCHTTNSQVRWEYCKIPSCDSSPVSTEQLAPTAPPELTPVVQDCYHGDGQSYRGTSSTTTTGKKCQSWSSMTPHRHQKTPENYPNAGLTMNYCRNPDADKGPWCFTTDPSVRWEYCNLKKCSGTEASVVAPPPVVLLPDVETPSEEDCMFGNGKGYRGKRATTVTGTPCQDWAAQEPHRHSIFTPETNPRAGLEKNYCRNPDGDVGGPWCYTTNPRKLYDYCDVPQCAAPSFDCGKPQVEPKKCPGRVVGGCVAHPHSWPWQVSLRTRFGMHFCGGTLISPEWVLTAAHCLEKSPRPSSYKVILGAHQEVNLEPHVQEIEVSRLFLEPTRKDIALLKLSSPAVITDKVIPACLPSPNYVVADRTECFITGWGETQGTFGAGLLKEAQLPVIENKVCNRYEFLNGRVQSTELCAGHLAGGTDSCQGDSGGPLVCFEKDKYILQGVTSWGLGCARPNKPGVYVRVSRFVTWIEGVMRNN

[3] = target: human cationic trypsin (human), P07477; experiment: competitive protease inhibition assay (selectivity panel), human trypsin, Boc-VPR-MCA
[4] = target: T3, recombinant human matriptase (human), Q9Y5Y6; experiment: competitive protease inhibition assay (selectivity panel), human matriptase, Boc-QAR-MCA
T3 chain: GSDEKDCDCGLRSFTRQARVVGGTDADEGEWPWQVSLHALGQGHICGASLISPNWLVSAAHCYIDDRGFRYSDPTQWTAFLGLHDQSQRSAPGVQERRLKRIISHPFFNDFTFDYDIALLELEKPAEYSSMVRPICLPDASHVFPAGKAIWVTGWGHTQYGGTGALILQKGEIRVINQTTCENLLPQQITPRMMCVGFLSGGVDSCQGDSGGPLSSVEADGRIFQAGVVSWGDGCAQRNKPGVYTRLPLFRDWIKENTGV

[5] = target: T1, human β-factor XIIa (human), P00748; experiment: competitive protease inhibition assay, 0.5 nM FXIIa, Boc-QGR-MCA substrate (unit as printed; probably pM)

Ki [1]: 66 nM
Ki [2]: 31 nM
Ki [3]: 0.08 nM
Ki [4]: 17 nM
B1: cMCoTI-fxL5 (peptide)
peptide: DGGVCPKILKKCRRDSDCPGACICRATRFCGSGS
modifications: not checked

Ki [5]: 1.09 nM
B2: Cyclic MCoFx6 (peptide)
peptide: GGICPRFGRLCRRDSDCPGACICRATRFCGSGSD
modifications: not checked
